From publication PMC4188261

Target: Burkholderia mallei BmaI1 acyl-homoserine lactone synthase (Burkholderia mallei ATCC23344)
Assay: steady-state enzyme kinetics

Substance: octanoyl-acyl carrier protein (E. coli ACP) (from UniProt P0A6A8 1-78) (natural protein)
- Kd: 125 nM
